Experimental data taken from paper doi:10.1101/567099 (bioRxiv, 2019).
Numbering of substitutions follows the chain as printed. Names may count otherwise.

What was measured:
[1] = target: the molecule itself; test: SEC
[2] = target: the molecule itself; test: negative-stain electron microscopy

B1: MBP-TorsinA (human TorsinA residues 51-332, N-terminal MBP tag) (domain or fragment)
chain: GQKRSLSREALQKDLDDNLFGQHLAKKIILNAVFGFINNPKPKKPLTLSLHGWTGTGKNFVSKIIAENIYEGGLNSDYVHLFVATLHFPHASNITLYKDQLQLWIRGNVSACARSIFIFDEMDKMHAGLIDAIKPFLDYYDLVDGVSYQKAMFIFLSNAGAERITDVALDFWRSGKQREDIKLKDIEHALSVSVFNNKNSGFWHSSLIDRNLIDYFVPFLPLEYKHLKMCIRVEMQSRGYEIDEDIVSRVAEEMTFFPKEERVFSDKGCKTVFTKLDYYYDD
binding result [1]: binds

B2: TorsinA K174A (human, residues 51-332) (domain or fragment)
chain: B1 chain with K124A
binding result [2]: binds

B3: TorsinA (human, residues 51-332) after cleavage of the MBP tag with 3C protease (domain or fragment)
chain: B1 chain
binding result [2]: binds

B4: TorsinA K174E (human, residues 51-332) (domain or fragment)
chain: B1 chain with K124E
binding result [2]: binds

B5: TorsinA H140N (human, residues 51-332) (domain or fragment)
chain: B1 chain with H90N
binding result [2]: binds
